Assay results from patent publication US6955900B1, “Methods for producing polypeptide binding sites, monoclonal antibodies and compositions thereof” (The Scripps Research Institute, priority 1993, dated 2005).
Read-outs that look alike come from different tables or passages of the source. Bridge positions count the residues as written; N and C are the ends. Ends that are not written are not given here.

Columns and labels:
αvβ3 [1] = biological target: T1, αvβ3 (Homo sapiens, UniProt P05106+P06756); test: purified ligand-receptor binding assay, inhibition of 125I-vitronectin binding to αvβ3; conditions: for blocking of vitronectin (ligand) binding to αvβ3: result in words
T1 construct: human placentas were obtained, cut into small pieces and extracted; from tissue
Experimental: (§1) The method for these binding studies has been described by Barbas et al., Proc. Natl. Acad. Sci., USA, 90:10003-10007 (1993) and Smith et al., J. Biol. Chem., 265:11008-11013 (1990), the disclosures of which are hereby incorporated by reference.
(§2) Briefly, selected purified integrins were separately immobilized in Titertek microtiter wells at a coating concentration of 50 ng per well. After incubation for 18 hr at 4° C., non-specific binding sites on the plate were blocked with 10 mg/ml of bovine serum albumin in Tris-buffered saline. For inhibition studies, a range of antibody was tested for the ability to block the binding of ^125I-vitronectin to αvβ3 and ^125I-fibrinogen to αIIbβ3. The choice to use two different ligands in comparing the inhibitory activity of antibodies was a compromise based on a complicated series of circumstances. […] In contrast, Ca^2+ is essential for the rapid binding of fibrinogen to αIIbβ3. […] Therefore, the optimal ligand was selected for each integrin. This corresponds to vitronectin for αvβ3 and fibrinogen for αIIbβ3. Radiolabeled ligands were used at concentrations of 1 nM and binding was challenged with unlabeled antibody.
(§3) Following a three hour incubation free ligand was removed by washing and bound ligand was detected by gamma counting. The data from this analysis were highly reproducible with the error between data points typically below 11%. Data are expressed as the average of triplicate data points. All experiments were repeated at least four times.

αIIbβ3 [2] = biological target: T2, αIIbβ3 (Homo sapiens, UniProt P05106+P08514); test: purified ligand-receptor binding assay, inhibition of 125I-fibrinogen binding to αIIbβ3; set-up: from tissue; the procedure itself is in U.S. Pat. No. 5,114,842; conditions: for blocking of fibrinogen (ligand) binding to gpIIb/IIIa (αIIbβ3): result in words
Experimental: as §1, §2, §3

αvβ5 [3] = biological target: T3, αvβ5 (Homo sapiens, UniProt P06756+P18084); test: purified ligand-receptor binding assay, inhibition of 125I-vitronectin binding to αvβ5; conditions: result in words
T3 construct: human placentas were obtained, cut into small pieces and extracted; from tissue
Experimental: To determine if the CDR was an appropriate vehicle for displaying and identifying inhibitory peptide motifs, the ability of synthetic peptides derived from the sequence of Fab 9 to block ligand binding to αvβ3, αvβ5 and αIIbβ3 was measured. One peptide synthesized as described below for use in this assay contained a RGD motif positioned on the apex of the CDR3 loop but lacked the remaining flanking regions of the CDR3 and rest of the heavy chain. The sequence of the peptide is listed in SEQ ID NO 12. A peptide having the same sequence but flanked by glycine residues to prevent cyclization was also prepared and has the amino acid residue sequence in SEQ ID NO 68. A longer peptide, having the amino acid residue sequence in SEQ ID NO 4 containing all of the amino acids in SEQ ID NO 12 along with flanking amino acid residues, was also prepared. These assays were performed in order to assess the ability of this particular peptide to inhibit the binding of a high affinity ligand to a receptor, namely the binding of vitronectin to αv/β3 or αv/β5 and fibrinogen to gpIIb/IIIa.
The synthetic peptides from Fab 9 were tested for the ability to antagonize αvβ3 and αIIbβ3 and αvβ5 in purified ligand-receptor binding assays performed as described in Example 5b. […]

αvβ3 [4] = biological target: T1, αvβ3; test: ELISA on αv/β3-coated wells; format: binding; conditions: result in words, compared to BSA background
Experimental: (§4) Preliminary ELISA assays were performed to first characterize the binding specificity of the panned phage monoclonal antibodies prepared above toward related integrins. For ELISA, 1 ug/well of the purified VNRs prepared in Example 3A was separately admixed to individual wells of a microtiter plate and maintained at 4 C overnight to allow the protein solution to adhere to the walls of the well. After the maintenance period, the wells were washed once with PBS and thereafter maintained with a solution of 3% BSA to block nonspecific sites on the wells. The plates were maintained at 37 C for 1 hour after which time the plates were inverted and shaked to remove the BSA solution. Soluble Fab heterodimers expressing the synthetic binding site proteins-prepared in Example 3B were then admixed separately to each well and maintained at 37 C for 1 hour to form a immunoreaction products. Following the maintenance period, the wells were washed 10 times with PBS to remove unbound soluble antibody and then maintained with a secondary goat anti-human FAB conjugated to alkaline phosphatase diluted in PBS containing 1% BSA. The wells were maintained at 37 C for 1 hour after which the wells were washed 10 times with PBS followed by development with p-nitrophenyl phosphate.

αvβ5 [5] = biological target: T3, αvβ5; test: ELISA on αv/β5-coated wells; format: binding; conditions: result in words, compared to BSA background
Experimental: as §4

gpIIb/IIIa [6] = biological target: T4, gpIIb/IIIa (Homo sapiens, UniProt P05106+P08514); test: gpIIb/IIIa sandwich ELISA on fibrinogen-coated plates; format: binding
T4 construct: from tissue; the procedure itself is in U.S. Pat. No. 5,114,842
Experimental: A gpIIb/IIIa sandwich ELISA assay was performed on 10 ug/ml (100 ul) of fibrinogen-coated plates. After blocking the plate as described above, the RGD-expressing, Fab, Mab 19, was admixed with purified gpIIb/IIIa receptor. After allowing the RGD-expressing Fab and receptor admixture to immunoreact with the fibrinogen, the wells were washed and the amount of bound gpIIb/IIIa was determined using an anti-IIIa antibody.

platelets = test: platelet aggregation assay; format: cell-based, human
Experimental: Platelet aggregation assays were performed as described in U.S. Pat. No. 5,114,842. […] When the concentration of the RGDC2-binding site Fab was decreased by half, the amount of platelet aggregation increased similarly and thus the amount of light transmitted increased. […] All of the initial selection and characterization of the semi-synthetic Fab antibodies of this invention relied largely upon the use of purified integrins. Since the MTF-antibodies blocked the function of αIIbβ3 and have potential therapeutic use in the prevention of thrombosis, the ability of recombinant Fabs to block platelet aggregation was measured as described in Example 4. Washed platelets (1×10^8) were placed in Tyrode's buffer containing 2 mM Ca^2+ and 100 ug/ml of fibrinogen and aggregation was stimulated by addition of 20 uM ADP. Aggregation was measured as light transmission through the platelet suspension using a Scienceo aggregometer.

gpIIb/IIIa [7] = biological target: T4, gpIIb/IIIa; test: ELISA on gpIIb/IIIa-coated surfaces; format: binding; conditions: result in words
αIIbβ3 [8] = biological target: T2, αIIbβ3; test: surface plasmon resonance (BIAcore), Fab binding to immobilized αIIbβ3; set-up: from tissue; the procedure itself is in U.S. Pat. No. 5,114,842; conditions: using SPR
Experimental: A comparison of absolute antibody affinities was then performed with surface plasmon resonance, which is a highly accurate means of assessing ligand affinities in real time. See, Altshuh et al., Biochem., 31:6298-6304 (1992); Chaiken et al., Anal. Biochem., 201:197-210 (1992); Eddowes, Biosensors, 3:1-15 (1987); Fagerstam et al., J. Chromatoar., 597:397-410 (1992); Johnsson et al., Anal. Biochem., 198:268-277 (1991); Karlsson et al., J. Immunol. Methods, 145:229-240 (1991); and VanCott et al., J. Immunol. Methods, 146:163-176 (1992), the disclosures of which are hereby incorporated by reference. SPR is a phenomena that occurs when incoming photons interact with electrons in a biosensor chip. […]
The association and dissociation rate constants (k1 and k−1) for semi-synthetic antibodies were obtained from BIAcore measurements as follows. […] At the end of the association phase the flow was changed to buffer without ligand and the change in response unit (RU) was measured as a function of time. […]
To obtain the association rate constant k1, an antibody was passed through the sensor chip containing unoccupied integrin and the response unit as a result of binding is again measured as a function of time. The association rate constant, k1, is calculated as shown in equation 2. k1=[((dRU/dt)/RU)−k−1]/L Equation 2 L is the concentration of ligand. […]

αIIbβ3 [9] = biological target: T2, αIIbβ3; conditions: solid-phase radioligand binding assays, recently reported; cited from earlier work
[10] = listed as Fab 9-derived peptide in SEQ ID NO 68

T1 sequence (P06756 31-889 limits assumed): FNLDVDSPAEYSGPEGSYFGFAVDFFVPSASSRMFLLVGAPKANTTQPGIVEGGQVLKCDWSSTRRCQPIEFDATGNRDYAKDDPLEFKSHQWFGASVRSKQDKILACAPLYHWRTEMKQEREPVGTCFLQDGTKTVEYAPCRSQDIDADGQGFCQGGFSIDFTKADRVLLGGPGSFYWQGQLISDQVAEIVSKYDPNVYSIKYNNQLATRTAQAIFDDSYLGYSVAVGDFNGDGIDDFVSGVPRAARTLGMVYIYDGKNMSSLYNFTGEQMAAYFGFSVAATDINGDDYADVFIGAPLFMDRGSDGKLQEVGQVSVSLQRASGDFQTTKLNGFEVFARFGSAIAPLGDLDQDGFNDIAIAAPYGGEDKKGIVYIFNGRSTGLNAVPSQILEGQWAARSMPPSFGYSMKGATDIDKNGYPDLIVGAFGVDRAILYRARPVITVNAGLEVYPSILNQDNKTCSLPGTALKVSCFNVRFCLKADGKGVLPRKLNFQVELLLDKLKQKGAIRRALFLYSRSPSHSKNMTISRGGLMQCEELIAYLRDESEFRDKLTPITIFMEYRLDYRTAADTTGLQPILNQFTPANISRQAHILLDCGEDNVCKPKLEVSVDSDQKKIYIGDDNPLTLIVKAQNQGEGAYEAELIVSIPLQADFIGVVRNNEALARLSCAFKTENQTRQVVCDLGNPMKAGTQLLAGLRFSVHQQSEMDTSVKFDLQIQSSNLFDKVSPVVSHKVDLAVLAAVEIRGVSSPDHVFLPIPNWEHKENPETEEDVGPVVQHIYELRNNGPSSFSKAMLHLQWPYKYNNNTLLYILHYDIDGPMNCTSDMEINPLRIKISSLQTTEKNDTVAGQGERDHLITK
T1 sequence (P06756 891-1048 partner limits assumed): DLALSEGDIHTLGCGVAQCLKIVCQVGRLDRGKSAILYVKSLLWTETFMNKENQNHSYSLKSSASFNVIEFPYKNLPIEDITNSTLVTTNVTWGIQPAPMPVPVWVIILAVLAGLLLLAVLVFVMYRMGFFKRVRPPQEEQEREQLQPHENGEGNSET
T1 sequence (P05106 27-788): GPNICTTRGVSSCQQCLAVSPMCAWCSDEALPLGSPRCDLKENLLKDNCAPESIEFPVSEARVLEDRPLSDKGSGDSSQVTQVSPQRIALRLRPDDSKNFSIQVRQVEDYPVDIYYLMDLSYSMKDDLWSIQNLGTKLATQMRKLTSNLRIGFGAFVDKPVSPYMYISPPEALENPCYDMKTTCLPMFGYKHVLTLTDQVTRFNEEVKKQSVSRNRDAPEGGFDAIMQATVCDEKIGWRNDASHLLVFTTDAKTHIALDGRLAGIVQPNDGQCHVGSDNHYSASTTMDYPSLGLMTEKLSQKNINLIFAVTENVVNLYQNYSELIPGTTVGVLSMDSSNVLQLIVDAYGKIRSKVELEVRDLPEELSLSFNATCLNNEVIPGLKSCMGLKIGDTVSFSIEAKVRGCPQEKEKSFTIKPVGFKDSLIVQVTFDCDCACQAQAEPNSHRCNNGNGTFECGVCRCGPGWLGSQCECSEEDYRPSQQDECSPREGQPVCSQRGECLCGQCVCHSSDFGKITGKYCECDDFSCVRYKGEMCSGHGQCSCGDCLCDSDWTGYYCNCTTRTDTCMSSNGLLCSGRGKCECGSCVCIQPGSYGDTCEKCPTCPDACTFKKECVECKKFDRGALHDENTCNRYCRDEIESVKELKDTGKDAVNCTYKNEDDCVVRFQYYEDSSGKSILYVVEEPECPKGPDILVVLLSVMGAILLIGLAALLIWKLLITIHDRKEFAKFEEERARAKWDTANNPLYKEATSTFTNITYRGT
T3 sequence (P06756 31-889 limits assumed): as the sequence (P06756 31-889 limits assumed) above
T3 sequence (P06756 891-1048 partner limits assumed): as the sequence (P06756 891-1048 partner limits assumed) above
T3 sequence (P18084 24-799): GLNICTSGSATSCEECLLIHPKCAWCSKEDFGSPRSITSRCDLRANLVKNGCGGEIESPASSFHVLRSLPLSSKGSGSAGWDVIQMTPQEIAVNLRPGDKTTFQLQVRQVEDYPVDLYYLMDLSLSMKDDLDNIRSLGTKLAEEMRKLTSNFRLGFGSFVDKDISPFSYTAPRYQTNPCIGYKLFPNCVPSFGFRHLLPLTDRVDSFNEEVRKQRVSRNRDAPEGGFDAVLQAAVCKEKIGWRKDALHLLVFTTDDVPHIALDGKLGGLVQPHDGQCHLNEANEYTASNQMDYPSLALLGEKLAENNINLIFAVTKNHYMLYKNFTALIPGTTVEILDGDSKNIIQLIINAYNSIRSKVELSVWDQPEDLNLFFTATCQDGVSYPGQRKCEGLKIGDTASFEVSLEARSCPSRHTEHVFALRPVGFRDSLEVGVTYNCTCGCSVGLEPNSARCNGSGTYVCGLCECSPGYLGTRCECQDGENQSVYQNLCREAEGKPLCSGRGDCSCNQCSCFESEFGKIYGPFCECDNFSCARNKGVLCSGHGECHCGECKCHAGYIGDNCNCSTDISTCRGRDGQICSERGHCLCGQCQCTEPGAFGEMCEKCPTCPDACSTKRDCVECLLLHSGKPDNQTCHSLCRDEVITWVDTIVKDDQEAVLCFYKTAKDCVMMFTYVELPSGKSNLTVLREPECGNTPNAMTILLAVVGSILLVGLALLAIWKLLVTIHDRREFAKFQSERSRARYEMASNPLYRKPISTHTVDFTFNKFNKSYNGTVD

Question: For “CSFGRGDIRNC (CSFGRGDIRNC-NH2; disulfide 1-11 (inferred); not fully specified) [circularized Fab 9-derived peptide]”, which “blocking of vitronectin (ligand) binding to αvβ3” value (“blocking of vitronectin … to αvβ3” for short) (αvβ3 [1]; listed as VnRB3-5-derived peptide) is on record?
Answer: inhibits

Question: For GSFGRGDIRNG [Lin-9], which “peptide concentration reaching maximal inhibition of binding to gpIIb/IIIa” value (αIIbβ3 [2]) is on record?
Answer: 10^−5 M

Question: And the “blocking of fibrinogen (ligand) binding to gpIIb/IIIa (αIIbβ3)” value (αIIbβ3 [2])?
Answer: inhibited

Question: What about the “blocking of fibrinogen (ligand) binding to gpIIb/IIIa (αIIbβ3)” value (αIIbβ3 [2]; [10]) of the same substance?
Answer: completely inhibited

Question: What about the “peptide concentration reaching maximal inhibition of binding to αv/β3” value (αvβ3 [1]) of the same substance?
Answer: 10^−5 M

Question: And the “blocking of vitronectin … to αvβ3” value (αvβ3 [1])?
Answer: inhibited

Question: What about the “blocking of vitronectin … to αvβ3” value (αvβ3 [1]; [10]) of the same substance?
Answer: completely inhibited

Question: What about the “blocking of vitronectin binding to αvβ5” value (αvβ5 [3]) of the same substance?
Answer: did not antagonize

Question: And the “blocking of vitronectin binding to αvβ5” value (αvβ5 [3]; [10])?
Answer: No inhibition

Question: Which “binding to αv/β3 (ELISA, immunoreaction)” value (αvβ3 [4]) does the source give for “Mab 8: Fab-displayed RGDC2 binding site VGCPIPRGDWRECYYMDV (SEQ ID NO 8) (Fab-displayed binding site)” here?
Answer: bound specifically

Question: What about the “binding to αv/β5 (ELISA, immunoreaction)” value (αvβ5 [5]) of the same substance?
Answer: not to αv/β5

Question: Which results are given for “Mab 19: Fab-displayed RGDC2 binding site VGCGRLRGDDPWCYYMDV (SEQ ID NO 3) (Fab-displayed binding site)”?
Answer: Fab concentration of maximal inhibition of gpIIb/IIIa binding to fibrinogen (gpIIb/IIIa [6]): 5 µM; blocking of gpIIb/IIIa binding to fibrinogen (gpIIb/IIIa [6]; result in words): blocked the binding of gpIIb/IIIa to fibrinogen in a dose-dependent manner; inhibition of platelet aggregation (platelets; 6.6 uM purified soluble Fab, light transmission): inhibited the aggregation of platelets in a time-dependent manner; inhibition of platelet aggregation compared with murine Fab LIBS-1 (platelets; simultaneously performed assays): equally effective; binding to gpIIb/IIIa (ELISA, immunoreaction) (gpIIb/IIIa [7]): specific for gpIIb/IIIa; binding to αv/β3 (ELISA, immunoreaction) (αvβ3 [4]): not cross-react; binding to αv/β5 (ELISA, immunoreaction) (αvβ5 [5]): not cross-react

Question: With “fibrinogen: natural high affinity ligand of αIIbβ3” as the substance, how does the “association rate constant for binding to αIIbβ3” value (αIIbβ3 [8]) read?
Answer: 600000 M⁻¹ s⁻¹

Question: What about the “association rate constant for binding to αIIbβ3” value (αIIbβ3 [9]) of the same substance?
Answer: 850000 M⁻¹ s⁻¹

Question: Which results are given for “peptides derived from HCDR3 of MTF-32: circular CSFGRTDQRNC (SEQ ID NO 71), linear GCSFGRTDQRNCY (SEQ ID NO 72) [peptide 32]”?
Answer: blocking of fibrinogen (ligand) binding to gpIIb/IIIa (αIIbβ3) (αIIbβ3 [2]): blocked; blocking of vitronectin (ligand) binding to αvβ3 (αvβ3 [1]): did not interfere

Question: What does the source list for “peptides derived from HCDR3 of MTF-40: circular CSFGRNDSRNC (SEQ ID NO 69), linear GCSFGRNDSRNCY (SEQ ID NO 70) [peptide 40]”?
Answer: blocking of fibrinogen (ligand) binding to gpIIb/IIIa (αIIbβ3) (αIIbβ3 [2]): blocked; blocking of vitronectin (ligand) binding to αvβ3 (αvβ3 [1]): did not interfere
